Source: US20240336656A1 (Bicycle, published 2024)
Starred links: 1 amine or outer side, 2 acyl side, 3 side chain; linkers in the order of their positions; H or OH if unused. Positions of bridges follow the written chain, without caps; N, C: chain ends. Non-standard residues stand in square brackets, D forms with d. Chains are numbered I, II in the order given. No end group written: not given here. PYA = 4-pentynoic acid on Lys NZ, clicked (triazole) to linker azide; TATA = O=C(CC[*:1])N1CN(C(=O)CC[*:2])CN(C(=O)CC[*:3])C1; 1Nal = N[C@@H](Cc1cccc2ccccc12)C(=O)O; Hyp = O=C(O)[C@@H]1C[C@@H](O)CN1; hArg = N=C(N)NCCCC[C@H](N)C(=O)O; tBuAla = CC(C)(C)C[C@H](N)C(=O)O; Nle = CCCC[C@H](N)C(=O)O

How the values were obtained:
CD137 (TNFRSF9) on cells [1] = target: T1, CD137 (TNFRSF9) on cells (human, UniProt Q07011 24-255); experiment: cell-based or functional assay
CD137 (TNFRSF9) on cells [2] = target: T1, CD137 (TNFRSF9) on cells; experiment: cell-based or functional assay; remark: listed apart in the source

T1 sequence (Q07011 24-255): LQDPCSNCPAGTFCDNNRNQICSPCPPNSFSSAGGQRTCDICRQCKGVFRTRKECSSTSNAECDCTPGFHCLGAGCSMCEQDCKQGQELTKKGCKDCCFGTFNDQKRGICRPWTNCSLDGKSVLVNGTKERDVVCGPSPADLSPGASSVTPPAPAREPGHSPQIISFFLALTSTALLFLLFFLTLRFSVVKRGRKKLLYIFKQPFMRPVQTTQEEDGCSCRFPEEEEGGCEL

B1: BCY11863 (peptide)
peptide 1: {N‑(acid-PEG3)‑N‑bis(PEG3-azide)}-CP[1Nal][dD]CM[hArg]DWSTP[Hyp]WC
peptide 2: Ac-C[tBuAla]PE[dK](PYA)PYCFADPY[Nle]CA
modifications: linker I:1-I:5-I:15, II:1-II:8-II:15 via TATA; also: heterotandem: one BCY8116 (chain 1) joined through N-(acid-PEG3)-N-bis(PEG3-azide) linker to two BCY8928 (chain 2), triazole via D-Lys(PYA)
CD137 (TNFRSF9) on cells [1]
  EC50 of IFNγ secretion, human PBMC co-culture with 4T1-D02 (mouse): 0.04 nM
  EC50 of IFNγ secretion, human PBMC co-culture with H322 (human): 0.85 nM
  EC50 of IFNγ secretion, human PBMC co-culture with MC38 # 13 (mouse): 0.17 nM
  EC50 of IFNγ secretion, human PBMC co-culture with T-47D (human): 0.08 nM
  EC50 of IL-2 secretion, human PBMC co-culture with 4T1-D02 (mouse): 0.16 nM
  EC50 of IL-2 secretion, human PBMC co-culture with H322 (human): 0.84 nM
  EC50 of IL-2 secretion, human PBMC co-culture with HT1376 (human): 0.39 nM
  EC50 of IL-2 secretion, human PBMC co-culture with MC38 # 13 (mouse): 0.25 nM
  EC50 of IL-2 secretion, human PBMC co-culture with T-47D (human): 0.2 nM
CD137 (TNFRSF9) on cells [2]
  EC50 (nM) of fold induction over background, CD137 reporter assay, coculture with CT26#7 (mouse): 0.14 nM
  EC50 (nM) of fold induction over background, CD137 reporter assay, coculture with HT1376 (human): 0.52 nM
  EC50 (nM) of fold induction over background, CD137 reporter assay, coculture with MC38#13 (mouse): 0.31 nM
  EC50 (nM) of fold induction over background, CD137 reporter assay, coculture with MDA-MB-468 (human): 0.23 nM
  EC50 (nM) of fold induction over background, CD137 reporter assay, coculture with NCI-H292 (human): 0.28 nM
  EC50 (nM) of fold induction over background, CD137 reporter assay, coculture with NCI-H322 (human): 0.33 nM
  EC50 (nM) of fold induction over background, CD137 reporter assay, coculture with T47D (human): 0.42 nM
